# Reference: PMC7785020, “A unique hormonal recognition feature of the human glucagon-like peptide-2 receptor” (Cell Research, 2020)
# Key:
# [1] = target: GLP-2R D244^ECL1A (human) (UniProt O95838); assay: radioligand binding; competition on transiently transfected COS-7 cells: unlabeled GLP-2(1–33) 0.1 nM to 1 μM against 10–15 pM [125I]GLP-2(1–33, M10Y); 4 h, 4 °C; 50 mM HEPES pH 7.4, 1 mM CaCl2, 5 mM MgCl2, 0.5% BSA; three-parameter logistic fit
# GLP-2R ECL1 (GLP-1R) = GLP-2R ECL1 (GLP-1R) (UniProt O95838); assay: as above
# GLP-2R ECL1 (GLP-1R), sequence (O95838 whole entry): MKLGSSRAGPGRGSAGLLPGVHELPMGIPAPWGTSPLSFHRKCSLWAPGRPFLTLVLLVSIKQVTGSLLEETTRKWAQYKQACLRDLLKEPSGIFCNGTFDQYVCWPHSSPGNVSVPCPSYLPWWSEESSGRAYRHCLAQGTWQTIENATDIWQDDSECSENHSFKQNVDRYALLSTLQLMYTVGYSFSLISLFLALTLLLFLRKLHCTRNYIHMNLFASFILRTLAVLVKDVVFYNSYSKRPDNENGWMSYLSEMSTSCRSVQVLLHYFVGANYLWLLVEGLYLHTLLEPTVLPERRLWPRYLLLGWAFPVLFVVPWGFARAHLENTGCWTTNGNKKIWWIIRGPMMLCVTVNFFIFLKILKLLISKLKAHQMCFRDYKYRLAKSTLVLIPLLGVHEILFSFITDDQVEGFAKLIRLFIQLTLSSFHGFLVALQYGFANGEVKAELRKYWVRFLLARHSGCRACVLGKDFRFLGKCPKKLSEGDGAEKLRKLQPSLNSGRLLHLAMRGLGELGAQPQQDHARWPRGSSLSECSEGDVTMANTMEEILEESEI
# [2] = target: GLP-2R ECL1 (poly-alanine) (human) (UniProt O95838); assay: as above
# GLP-2R ECL1 (poly-alanine) (human), sequence (O95838 whole entry): as above
# [3] = target: GLP-2R H268^3.37A (human) (UniProt O95838); assay: as above
# GLP-2R H268^3.37A (human), sequence (O95838 whole entry H268A): as the sequence (O95838 whole entry) above, with H268A counted along it
# [4] = target: GLP-2R K414^7.35 A (human) (UniProt O95838); assay: as above
# GLP-2R K414^7.35 A (human), sequence (O95838 whole entry K414A): as the sequence (O95838 whole entry) above, with K414A counted along it
# [5] = target: GLP-2R N247^ECL1A (human) (UniProt O95838); assay: as above
# [6] = target: GLP-2R N334^ECL2 A (human) (UniProt O95838); assay: as above
# GLP-2R N334^ECL2 A (human), sequence (O95838 whole entry N334A): as the sequence (O95838 whole entry) above, with N334A counted along it
# [7] = target: GLP-2R R242^ECL1A (human) (UniProt O95838); assay: as above
# GLP-2R R242^ECL1A (human), sequence (O95838 whole entry R242A): as the sequence (O95838 whole entry) above, with R242A counted along it
# [8] = target: GLP-2R R344^5.40A (human) (UniProt O95838); assay: as above
# [9] = target: GLP-2R W249^ECL1A (human) (UniProt O95838); assay: as above
# [10] = target: GLP-2R W340^5.36A (human) (UniProt O95838); assay: as above
# [11] = target: GLP-2R Y182^1.43A (human) (UniProt O95838); assay: as above
# GLP-2R Y182^1.43A (human), sequence (O95838 whole entry Y182A): as the sequence (O95838 whole entry) above, with Y182A counted along it
# [12] = target: GLP-2R Y252^ECL1A (human) (UniProt O95838); assay: as above
# GLP-2R Y252^ECL1A (human), sequence (O95838 whole entry Y252A): as the sequence (O95838 whole entry) above, with Y252A counted along it
# [13] = target: Human GLP-2R WT (1–553) (human) (UniProt O95838); assay: as above
# dipeptidyl peptidase 4 = conditions: cited from earlier work
# Excerpt: GLP-2R belongs to class B GPCR subfamily, which is mainly expressed in the gut, pancreas and brain.[1] […] GLP-2 is encoded by the proglucagon gene and becomes active after post-translational processing by prohormone convertases. As a gastrointestinal hormone, it mainly regulates intestinal epithelial cell growth and functions that are crucial for digestion and absorption of nutrients.[2]
# GLP-2R D244^ECL1A (human), sequence (O95838 whole entry D244A): as the sequence (O95838 whole entry) above, with D244A counted along it
% Binding of WT [1],% Binding of WT (GLP-2R ECL1 (GLP-1R)),% Binding of WT [2],% Binding of WT [3],% Binding of WT [4],% Binding of WT [5],% Binding of WT [6],% Binding of WT [7],% Binding of WT [8],% Binding of WT [9],% Binding of WT [10],% Binding of WT [11],% Binding of WT [12],% Binding of WT [13],Compound,inactivation by dipeptidyl peptidase 4 in vivo (in words) (dipeptidyl peptidase 4)
69.1%,3.4%,3%,2.1%,15.2%,131%,2.4%,4.2%,5%,2.2%,7.3%,3.4%,8.3%,99.2%,"[^125I]GLP-2(1–33, M10Y) (peptide)",–
–,–,–,–,–,–,–,–,–,–,–,–,–,–,CC[C@H](C)[C@H](NC(=O)[C@H](Cc1ccccc1)NC(=O)[C@H](CC(=O)O)NC(=O)[C@H](CCCNC(=N)N)NC(=O)[C@H](C)NC(=O)[C@H](C)NC(=O)[C@H](CC(C)C)NC(=O)[C@H](CC(N)=O)NC(=O)[C@H](CC(=O)O)NC(=O)[C@H](CC(C)C)NC(=O)[C@@H](NC(=O)[C@@H](NC(=O)[C@H](CC(N)=O)NC(=O)[C@H](CCSC)NC(=O)[C@H](CCC(=O)O)NC(=O)[C@H](CC(=O)O)NC(=O)[C@H](CO)NC(=O)[C@H](Cc1ccccc1)NC(=O)[C@H](CO)NC(=O)CNC(=O)[C@H](CC(=O)O)NC(=O)[C@H](C)NC(=O)[C@@H](N)Cc1c[nH]cn1)[C@@H](C)O)[C@@H](C)CC)C(=O)N[C@@H](CC(N)=O)C(=O)N[C@@H](Cc1c[nH]c2ccccc12)C(=O)N[C@@H](CC(C)C)C(=O)N[C@H](C(=O)N[C@@H](CCC(N)=O)C(=O)N[C@H](C(=O)N[C@@H](CCCCN)C(=O)N[C@H](C(=O)N[C@H](C(=O)N[C@@H](CC(=O)O)C(=O)O)[C@@H](C)O)[C@@H](C)CC)[C@@H](C)O)[C@@H](C)CC [Human GLP-2 (1–33)],rapidly inactivated by dipeptidyl peptidase 4 in vivo
